In the supplement of paper PMC10065799, “High-throughput profiling of sequence recognition by tyrosine kinases and SH2 domains using bacterial peptide display” (eLife, 2023):
Each block holds one sequence with its values, some of them ahead of it.

What was measured:
[1] = test system: AncSZ; assay: phosphorylation enrichment, bacterial display (enrichment ratio); higher = better substrate or ligand; peptides without Tyr show the background
[2] = biological target: FGFR1 (UniProt P11362); assay: as above
[3] = test system: c-Abl (mouse); assay: as above
[4] = biological target: EPHB1 (UniProt P54762); assay: as above
[5] = biological target: Fes (UniProt P07332); assay: as above
[6] = biological target: MERTK (UniProt Q12866); assay: as above
[7] = biological target: Jak2 (UniProt O60674); assay: as above
[8] = test system: c-Src; assay: as above
[9] = biological target: Fyn (UniProt P06241); assay: as above
[10] = biological target: Hck (UniProt P08631); assay: as above
[11] = biological target: FGFR3 (UniProt P22607); assay: as above
[12] = test system: Fer (mouse); assay: as above
[13] = biological target: EPHB2 (UniProt P29323); assay: as above
[14] = biological target: c-Src SH2; assay: SH2 binding enrichment of the phosphorylated peptide, bacterial display (enrichment ratio); higher = better substrate or ligand; peptides without Tyr show the background
[15] = biological target: SHP2-C SH2; assay: as above
[16] = biological target: Grb2 SH2 (UniProt P62993); assay: as above
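Wherever SH2 binding enrichment of the phosphorylated peptide, bacterial display is given: peptide library displayed on the E. coli surface as eCPX fusions, selected cells deep-sequenced, score is each peptide's frequency after selection divided by its frequency in the input.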
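Wherever phosphorylation enrichment, bacterial display is given: 11-residue human phosphosite peptides and single-mutation variants displayed on the E. coli surface, counted by deep sequencing, each peptide's frequency after selection divided by its frequency in the unselected input library; frequency after pTyr selection over input frequency; kinase dosed for 20-30% of maximal phosphorylation in three min.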

Sequence of EPHB2 (P29323 whole entry, looked up): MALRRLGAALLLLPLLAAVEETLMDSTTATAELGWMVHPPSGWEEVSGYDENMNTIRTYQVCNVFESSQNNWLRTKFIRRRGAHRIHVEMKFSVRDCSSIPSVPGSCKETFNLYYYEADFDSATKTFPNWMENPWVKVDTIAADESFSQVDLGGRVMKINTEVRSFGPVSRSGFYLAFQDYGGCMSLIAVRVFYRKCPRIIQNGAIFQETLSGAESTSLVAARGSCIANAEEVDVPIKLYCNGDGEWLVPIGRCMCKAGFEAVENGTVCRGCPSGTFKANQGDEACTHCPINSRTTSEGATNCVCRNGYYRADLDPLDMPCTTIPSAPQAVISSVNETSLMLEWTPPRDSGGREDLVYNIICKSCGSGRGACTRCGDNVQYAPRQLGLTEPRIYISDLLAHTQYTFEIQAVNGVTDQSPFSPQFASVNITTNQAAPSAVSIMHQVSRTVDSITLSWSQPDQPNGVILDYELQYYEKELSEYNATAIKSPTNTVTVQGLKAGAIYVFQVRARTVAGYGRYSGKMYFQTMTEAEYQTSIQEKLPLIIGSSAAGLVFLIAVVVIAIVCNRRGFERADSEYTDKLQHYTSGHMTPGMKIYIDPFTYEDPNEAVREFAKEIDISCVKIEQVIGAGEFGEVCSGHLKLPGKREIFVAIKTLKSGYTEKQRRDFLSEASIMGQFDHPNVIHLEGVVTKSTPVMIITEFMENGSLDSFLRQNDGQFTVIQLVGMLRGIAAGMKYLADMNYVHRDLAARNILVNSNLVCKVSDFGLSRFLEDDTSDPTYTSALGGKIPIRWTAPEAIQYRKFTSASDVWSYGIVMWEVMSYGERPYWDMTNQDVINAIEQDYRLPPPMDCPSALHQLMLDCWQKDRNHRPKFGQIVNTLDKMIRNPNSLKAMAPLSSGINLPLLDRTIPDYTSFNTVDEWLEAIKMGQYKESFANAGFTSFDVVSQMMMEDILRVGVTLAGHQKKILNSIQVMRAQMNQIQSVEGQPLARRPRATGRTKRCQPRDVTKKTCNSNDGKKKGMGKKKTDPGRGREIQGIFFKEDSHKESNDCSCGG
Sequence of Hck (P08631 whole entry, looked up): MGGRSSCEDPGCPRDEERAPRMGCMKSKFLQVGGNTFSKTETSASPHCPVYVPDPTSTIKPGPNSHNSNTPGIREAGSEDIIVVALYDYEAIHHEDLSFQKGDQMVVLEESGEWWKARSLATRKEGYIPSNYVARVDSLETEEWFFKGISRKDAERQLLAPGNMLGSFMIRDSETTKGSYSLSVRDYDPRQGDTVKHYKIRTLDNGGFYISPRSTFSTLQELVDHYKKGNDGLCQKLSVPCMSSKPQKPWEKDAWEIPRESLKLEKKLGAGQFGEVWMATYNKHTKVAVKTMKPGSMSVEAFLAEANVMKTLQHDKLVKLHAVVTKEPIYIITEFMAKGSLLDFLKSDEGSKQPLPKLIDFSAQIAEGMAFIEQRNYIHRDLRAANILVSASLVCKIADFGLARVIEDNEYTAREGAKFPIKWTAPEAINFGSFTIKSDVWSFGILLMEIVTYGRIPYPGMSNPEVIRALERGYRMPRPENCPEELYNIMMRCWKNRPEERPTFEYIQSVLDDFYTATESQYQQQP
Sequence of EPHB1 (P54762 whole entry, looked up): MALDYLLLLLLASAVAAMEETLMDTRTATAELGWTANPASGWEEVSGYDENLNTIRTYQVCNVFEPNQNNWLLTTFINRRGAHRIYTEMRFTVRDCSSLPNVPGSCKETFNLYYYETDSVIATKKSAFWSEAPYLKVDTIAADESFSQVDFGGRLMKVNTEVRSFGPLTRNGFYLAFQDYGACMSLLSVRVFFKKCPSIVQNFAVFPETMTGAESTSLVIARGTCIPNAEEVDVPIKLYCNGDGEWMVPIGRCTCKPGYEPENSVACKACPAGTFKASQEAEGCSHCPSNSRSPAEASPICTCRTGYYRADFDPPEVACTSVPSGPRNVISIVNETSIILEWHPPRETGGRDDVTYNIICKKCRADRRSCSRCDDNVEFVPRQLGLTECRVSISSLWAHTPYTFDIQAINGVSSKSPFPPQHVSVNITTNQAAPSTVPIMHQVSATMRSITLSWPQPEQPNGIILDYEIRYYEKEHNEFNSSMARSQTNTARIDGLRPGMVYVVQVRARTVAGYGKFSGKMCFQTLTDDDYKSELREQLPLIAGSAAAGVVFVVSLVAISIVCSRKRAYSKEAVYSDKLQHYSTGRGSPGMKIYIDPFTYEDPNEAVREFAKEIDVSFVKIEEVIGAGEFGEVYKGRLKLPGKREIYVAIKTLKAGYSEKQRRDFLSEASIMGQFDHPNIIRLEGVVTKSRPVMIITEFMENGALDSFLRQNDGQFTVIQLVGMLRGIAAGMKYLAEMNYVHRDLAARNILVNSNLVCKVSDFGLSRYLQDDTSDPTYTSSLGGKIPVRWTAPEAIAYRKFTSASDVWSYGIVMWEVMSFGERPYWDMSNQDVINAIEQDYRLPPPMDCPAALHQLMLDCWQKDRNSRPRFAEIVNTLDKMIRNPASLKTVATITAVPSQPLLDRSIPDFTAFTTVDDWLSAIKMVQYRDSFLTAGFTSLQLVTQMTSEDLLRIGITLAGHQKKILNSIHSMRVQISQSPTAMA
Sequence of Jak2 (O60674 whole entry, looked up): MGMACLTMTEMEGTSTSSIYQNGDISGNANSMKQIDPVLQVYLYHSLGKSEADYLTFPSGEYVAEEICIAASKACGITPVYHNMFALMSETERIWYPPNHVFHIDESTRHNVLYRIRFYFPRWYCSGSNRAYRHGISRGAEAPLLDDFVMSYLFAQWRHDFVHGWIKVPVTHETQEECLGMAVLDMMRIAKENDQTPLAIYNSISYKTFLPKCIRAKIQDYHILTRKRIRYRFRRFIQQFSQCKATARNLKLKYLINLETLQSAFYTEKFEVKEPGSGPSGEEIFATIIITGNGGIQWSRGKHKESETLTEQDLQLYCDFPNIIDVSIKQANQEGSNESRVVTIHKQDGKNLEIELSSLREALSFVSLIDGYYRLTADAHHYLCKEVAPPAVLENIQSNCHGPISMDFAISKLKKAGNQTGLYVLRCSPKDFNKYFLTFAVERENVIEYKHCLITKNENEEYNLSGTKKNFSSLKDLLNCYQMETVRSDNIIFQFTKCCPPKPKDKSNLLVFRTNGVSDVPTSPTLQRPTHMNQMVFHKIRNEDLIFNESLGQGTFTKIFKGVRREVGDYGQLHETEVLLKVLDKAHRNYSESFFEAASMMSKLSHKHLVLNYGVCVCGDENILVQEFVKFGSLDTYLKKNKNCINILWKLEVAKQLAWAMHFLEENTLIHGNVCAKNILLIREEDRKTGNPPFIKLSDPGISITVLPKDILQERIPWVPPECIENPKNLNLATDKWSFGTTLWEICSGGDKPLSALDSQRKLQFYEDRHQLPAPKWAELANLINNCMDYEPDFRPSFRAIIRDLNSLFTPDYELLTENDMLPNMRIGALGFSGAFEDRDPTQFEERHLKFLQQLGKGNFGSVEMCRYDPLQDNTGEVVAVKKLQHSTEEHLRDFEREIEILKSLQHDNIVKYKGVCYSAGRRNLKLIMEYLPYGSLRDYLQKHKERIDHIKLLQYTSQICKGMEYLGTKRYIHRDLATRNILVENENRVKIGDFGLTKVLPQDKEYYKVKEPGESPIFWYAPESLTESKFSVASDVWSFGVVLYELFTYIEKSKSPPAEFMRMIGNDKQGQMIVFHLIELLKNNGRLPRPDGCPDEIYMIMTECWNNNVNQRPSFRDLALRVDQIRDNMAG
Sequence of FGFR1 (P11362 whole entry, looked up): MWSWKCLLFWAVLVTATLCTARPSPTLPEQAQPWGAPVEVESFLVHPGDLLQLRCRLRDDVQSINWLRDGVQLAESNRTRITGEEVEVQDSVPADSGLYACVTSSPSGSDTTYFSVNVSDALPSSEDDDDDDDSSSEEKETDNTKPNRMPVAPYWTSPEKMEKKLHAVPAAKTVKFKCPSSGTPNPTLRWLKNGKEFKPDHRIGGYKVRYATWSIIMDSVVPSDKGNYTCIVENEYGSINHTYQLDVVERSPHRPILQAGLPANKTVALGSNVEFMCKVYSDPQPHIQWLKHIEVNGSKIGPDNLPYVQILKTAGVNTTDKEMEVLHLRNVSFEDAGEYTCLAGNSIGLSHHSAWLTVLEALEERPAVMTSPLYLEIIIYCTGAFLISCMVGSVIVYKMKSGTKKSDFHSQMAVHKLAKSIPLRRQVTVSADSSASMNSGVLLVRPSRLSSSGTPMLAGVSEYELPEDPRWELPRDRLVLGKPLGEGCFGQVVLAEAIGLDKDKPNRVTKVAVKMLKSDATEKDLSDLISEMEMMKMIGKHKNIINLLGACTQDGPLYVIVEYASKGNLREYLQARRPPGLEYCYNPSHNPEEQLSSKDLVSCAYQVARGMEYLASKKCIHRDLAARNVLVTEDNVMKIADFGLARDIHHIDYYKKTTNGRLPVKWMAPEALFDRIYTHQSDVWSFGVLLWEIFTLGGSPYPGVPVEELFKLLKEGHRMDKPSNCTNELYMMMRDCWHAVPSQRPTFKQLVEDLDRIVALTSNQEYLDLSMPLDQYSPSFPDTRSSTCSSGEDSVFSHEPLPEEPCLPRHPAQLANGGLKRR
Sequence of Fyn (P06241 whole entry, looked up): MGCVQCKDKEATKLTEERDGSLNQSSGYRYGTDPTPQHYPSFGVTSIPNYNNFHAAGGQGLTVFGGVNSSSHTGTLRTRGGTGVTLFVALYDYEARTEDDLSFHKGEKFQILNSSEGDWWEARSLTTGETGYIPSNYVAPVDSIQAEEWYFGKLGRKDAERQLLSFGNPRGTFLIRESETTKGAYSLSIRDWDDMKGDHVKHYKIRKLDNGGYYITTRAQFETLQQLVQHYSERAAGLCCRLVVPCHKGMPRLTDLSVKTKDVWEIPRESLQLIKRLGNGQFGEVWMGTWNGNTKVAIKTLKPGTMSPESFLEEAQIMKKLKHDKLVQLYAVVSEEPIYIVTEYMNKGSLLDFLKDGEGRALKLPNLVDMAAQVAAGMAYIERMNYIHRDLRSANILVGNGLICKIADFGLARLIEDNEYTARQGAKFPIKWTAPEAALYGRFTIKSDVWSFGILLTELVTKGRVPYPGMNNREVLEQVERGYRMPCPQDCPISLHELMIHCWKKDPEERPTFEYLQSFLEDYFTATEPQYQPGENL

SH2 binding enrichment [14]: 0.712
SH2 binding enrichment [15]: 0.808
SH2 binding enrichment [16]: 1.05
Sequence: GGGFGYQKTKK [DDX18_Y643]
phosphorylation enrichment [1]: 0.328
phosphorylation enrichment [2]: 0.371
phosphorylation enrichment [3]: 0.556
phosphorylation enrichment [4]: 0.252
phosphorylation enrichment [5]: 0.52
phosphorylation enrichment [6]: 0.308
phosphorylation enrichment [7]: 0.814
phosphorylation enrichment [8]: 0.3
phosphorylation enrichment [9]: 0.315
phosphorylation enrichment [10]: 0.379
phosphorylation enrichment [11]: 0.422
phosphorylation enrichment [12]: 0.343
phosphorylation enrichment [13]: 0.318

SH2 binding enrichment [14]: 0.459
SH2 binding enrichment [15]: 0.648
SH2 binding enrichment [16]: 0.784
Sequence: FHKALYTVRSF [PDE6C_Y266_YF]
phosphorylation enrichment [1]: 0.708
phosphorylation enrichment [2]: 0.462
phosphorylation enrichment [3]: 0.666
phosphorylation enrichment [4]: 0.612
phosphorylation enrichment [5]: 0.942
phosphorylation enrichment [6]: 0.378
phosphorylation enrichment [7]: 0.674
phosphorylation enrichment [8]: 0.389
phosphorylation enrichment [9]: 0.43
phosphorylation enrichment [10]: 0.557
phosphorylation enrichment [11]: 0.549
phosphorylation enrichment [12]: 0.394
phosphorylation enrichment [13]: 0.489

SH2 binding enrichment [14]: 0.545
SH2 binding enrichment [15]: 0.432
SH2 binding enrichment [16]: 0.697
Sequence: RVAFQYGVTDL [MYBPC3_Y340_I336V]
phosphorylation enrichment [1]: 1.16
phosphorylation enrichment [2]: 0.456
phosphorylation enrichment [3]: 0.764
phosphorylation enrichment [4]: 0.461
phosphorylation enrichment [5]: 1.27
phosphorylation enrichment [6]: 0.471
phosphorylation enrichment [7]: 1.08
phosphorylation enrichment [8]: 0.493
phosphorylation enrichment [9]: 0.49
phosphorylation enrichment [10]: 0.599
phosphorylation enrichment [11]: 0.842
phosphorylation enrichment [12]: 0.576
phosphorylation enrichment [13]: 0.827

SH2 binding enrichment [14]: 6.95
SH2 binding enrichment [15]: 1.05
SH2 binding enrichment [16]: 9.16
Sequence: VNYGAYINDFN [GLB1_Y488_K493N]
phosphorylation enrichment [1]: 1
phosphorylation enrichment [2]: 0.451
phosphorylation enrichment [3]: 0.703
phosphorylation enrichment [4]: 0.737
phosphorylation enrichment [5]: 1
phosphorylation enrichment [6]: 0.469
phosphorylation enrichment [7]: 0.748
phosphorylation enrichment [8]: 0.675
phosphorylation enrichment [9]: 0.87
phosphorylation enrichment [10]: 0.533
phosphorylation enrichment [11]: 0.616
phosphorylation enrichment [12]: 0.462
phosphorylation enrichment [13]: 1.09

SH2 binding enrichment [14]: 2.42
SH2 binding enrichment [15]: 3.04
SH2 binding enrichment [16]: 0.721
Sequence: SSAAGYACLAY [MVD_Y131]
phosphorylation enrichment [1]: 0.9
phosphorylation enrichment [2]: 0.547
phosphorylation enrichment [3]: 0.897
phosphorylation enrichment [4]: 0.553
phosphorylation enrichment [5]: 1.07
phosphorylation enrichment [6]: 0.498
phosphorylation enrichment [7]: 1.02
phosphorylation enrichment [8]: 0.593
phosphorylation enrichment [9]: 0.531
phosphorylation enrichment [10]: 0.575
phosphorylation enrichment [11]: 0.736
phosphorylation enrichment [12]: 0.574
phosphorylation enrichment [13]: 0.615

SH2 binding enrichment [14]: 1.26
SH2 binding enrichment [15]: 1.26
SH2 binding enrichment [16]: 1.12
Sequence: PCLLRYLQLDF [ASB10_Y457_R453C]
phosphorylation enrichment [1]: 1.5
phosphorylation enrichment [2]: 1.18
phosphorylation enrichment [3]: 1.12
phosphorylation enrichment [4]: 0.833
phosphorylation enrichment [5]: 1.72
phosphorylation enrichment [6]: 0.733
phosphorylation enrichment [7]: 1.51
phosphorylation enrichment [8]: 0.502
phosphorylation enrichment [9]: 0.497
phosphorylation enrichment [10]: 0.783
phosphorylation enrichment [11]: 1.14
phosphorylation enrichment [12]: 0.968
phosphorylation enrichment [13]: 0.538

SH2 binding enrichment [14]: 0.539
SH2 binding enrichment [15]: 0.694
SH2 binding enrichment [16]: 0.859
Sequence: FEREQYADRTR [RBM4_Y355_A359T_YF]
phosphorylation enrichment [1]: 0.625
phosphorylation enrichment [2]: 0.46
phosphorylation enrichment [3]: 0.588
phosphorylation enrichment [4]: 0.398
phosphorylation enrichment [5]: 0.622
phosphorylation enrichment [6]: 0.426
phosphorylation enrichment [7]: 0.582
phosphorylation enrichment [8]: 0.419
phosphorylation enrichment [9]: 0.412
phosphorylation enrichment [10]: 0.459
phosphorylation enrichment [11]: 0.429
phosphorylation enrichment [12]: 0.436
phosphorylation enrichment [13]: 0.478

SH2 binding enrichment [14]: 0.728
SH2 binding enrichment [15]: 0.776
SH2 binding enrichment [16]: 0.801
Sequence: KVKEQYQDVPM [PKP2_Y659]
phosphorylation enrichment [1]: 0.667
phosphorylation enrichment [2]: 0.509
phosphorylation enrichment [3]: 0.603
phosphorylation enrichment [4]: 0.455
phosphorylation enrichment [5]: 0.717
phosphorylation enrichment [6]: 0.401
phosphorylation enrichment [7]: 0.632
phosphorylation enrichment [8]: 0.395
phosphorylation enrichment [9]: 0.446
phosphorylation enrichment [10]: 0.48
phosphorylation enrichment [11]: 0.48
phosphorylation enrichment [12]: 0.36
phosphorylation enrichment [13]: 0.431

SH2 binding enrichment [14]: 0.504
SH2 binding enrichment [15]: 0.673
SH2 binding enrichment [16]: 0.859
Sequence: SSSPTYPDLPF [GLI3_Y168]
phosphorylation enrichment [1]: 0.839
phosphorylation enrichment [2]: 0.784
phosphorylation enrichment [3]: 0.967
phosphorylation enrichment [4]: 0.634
phosphorylation enrichment [5]: 0.933
phosphorylation enrichment [6]: 0.654
phosphorylation enrichment [7]: 0.91
phosphorylation enrichment [8]: 0.565
phosphorylation enrichment [9]: 0.568
phosphorylation enrichment [10]: 0.59
phosphorylation enrichment [11]: 0.627
phosphorylation enrichment [12]: 0.745
phosphorylation enrichment [13]: 0.543

SH2 binding enrichment [14]: 0.453
SH2 binding enrichment [15]: 0.717
SH2 binding enrichment [16]: 0.76
Sequence: SVTYTYSPALN [TP53_Y126_C124Y]
phosphorylation enrichment [1]: 1.5
phosphorylation enrichment [2]: 1.24
phosphorylation enrichment [3]: 1.78
phosphorylation enrichment [4]: 0.95
phosphorylation enrichment [5]: 1.16
phosphorylation enrichment [6]: 2.79
phosphorylation enrichment [7]: 0.997
phosphorylation enrichment [8]: 0.998
phosphorylation enrichment [9]: 0.967
phosphorylation enrichment [10]: 1.17
phosphorylation enrichment [11]: 1.34
phosphorylation enrichment [12]: 0.621
phosphorylation enrichment [13]: 0.87

SH2 binding enrichment [14]: 0.556
SH2 binding enrichment [15]: 0.797
SH2 binding enrichment [16]: 0.992
Sequence: KSIDEYLKLVG [RASAL2_Y381_E379D]
phosphorylation enrichment [1]: 0.843
phosphorylation enrichment [2]: 0.465
phosphorylation enrichment [3]: 0.449
phosphorylation enrichment [4]: 0.378
phosphorylation enrichment [5]: 0.73
phosphorylation enrichment [6]: 0.34
phosphorylation enrichment [7]: 0.761
phosphorylation enrichment [8]: 0.37
phosphorylation enrichment [9]: 0.406
phosphorylation enrichment [10]: 0.489
phosphorylation enrichment [11]: 0.445
phosphorylation enrichment [12]: 0.374
phosphorylation enrichment [13]: 0.596

SH2 binding enrichment [14]: 0.413
SH2 binding enrichment [15]: 0.79
SH2 binding enrichment [16]: 0.8
Sequence: SKEPFYVRCIK [MYO1D_Y586_YF]
phosphorylation enrichment [1]: 0.939
phosphorylation enrichment [2]: 0.42
phosphorylation enrichment [3]: 0.727
phosphorylation enrichment [4]: 0.951
phosphorylation enrichment [5]: 1.18
phosphorylation enrichment [6]: 0.347
phosphorylation enrichment [7]: 0.921
phosphorylation enrichment [8]: 0.354
phosphorylation enrichment [9]: 0.339
phosphorylation enrichment [10]: 0.434
phosphorylation enrichment [11]: 0.634
phosphorylation enrichment [12]: 0.449
phosphorylation enrichment [13]: 0.56

SH2 binding enrichment [14]: 0.525
SH2 binding enrichment [15]: 0.857
SH2 binding enrichment [16]: 1.02
Sequence: RISGVYKLPPD [ANGPTL7_Y145]
phosphorylation enrichment [1]: 0.9
phosphorylation enrichment [2]: 0.623
phosphorylation enrichment [3]: 0.838
phosphorylation enrichment [4]: 0.511
phosphorylation enrichment [5]: 0.852
phosphorylation enrichment [6]: 0.719
phosphorylation enrichment [7]: 0.785
phosphorylation enrichment [8]: 0.827
phosphorylation enrichment [9]: 1
phosphorylation enrichment [10]: 0.572
phosphorylation enrichment [11]: 0.801
phosphorylation enrichment [12]: 0.5
phosphorylation enrichment [13]: 0.586

SH2 binding enrichment [14]: 0.464
SH2 binding enrichment [15]: 0.606
SH2 binding enrichment [16]: 0.914
Sequence: HTLIKYTDGDQ [PUS7L_Y94]
phosphorylation enrichment [1]: 1.41
phosphorylation enrichment [2]: 1.33
phosphorylation enrichment [3]: 1.35
phosphorylation enrichment [4]: 0.819
phosphorylation enrichment [5]: 1.76
phosphorylation enrichment [6]: 1.16
phosphorylation enrichment [7]: 1.75
phosphorylation enrichment [8]: 1.09
phosphorylation enrichment [9]: 1.89
phosphorylation enrichment [10]: 1.01
phosphorylation enrichment [11]: 1.14
phosphorylation enrichment [12]: 0.64
phosphorylation enrichment [13]: 0.982

SH2 binding enrichment [14]: 0.527
SH2 binding enrichment [15]: 0.753
SH2 binding enrichment [16]: 0.781
Sequence: FISVGYVDGTQ [HLA-B_Y51_D54G]
phosphorylation enrichment [1]: 0.741
phosphorylation enrichment [2]: 0.353
phosphorylation enrichment [3]: 0.572
phosphorylation enrichment [4]: 0.268
phosphorylation enrichment [5]: 0.807
phosphorylation enrichment [6]: 0.348
phosphorylation enrichment [7]: 0.696
phosphorylation enrichment [8]: 0.398
phosphorylation enrichment [9]: 0.315
phosphorylation enrichment [10]: 0.375
phosphorylation enrichment [11]: 0.587
phosphorylation enrichment [12]: 0.358
phosphorylation enrichment [13]: 0.401

SH2 binding enrichment [14]: 0.472
SH2 binding enrichment [15]: 0.696
SH2 binding enrichment [16]: 0.86
Sequence: KPMDTYFDSTR [DYNC2H1_Y2230_YF]
phosphorylation enrichment [1]: 0.79
phosphorylation enrichment [2]: 0.778
phosphorylation enrichment [3]: 0.615
phosphorylation enrichment [4]: 0.666
phosphorylation enrichment [5]: 0.804
phosphorylation enrichment [6]: 0.489
phosphorylation enrichment [7]: 0.758
phosphorylation enrichment [8]: 0.512
phosphorylation enrichment [9]: 0.452
phosphorylation enrichment [10]: 0.484
phosphorylation enrichment [11]: 0.651
phosphorylation enrichment [12]: 0.526
phosphorylation enrichment [13]: 0.517

SH2 binding enrichment [14]: 0.531
SH2 binding enrichment [15]: 0.942
SH2 binding enrichment [16]: 0.973
Sequence: SFVMVYEGNAR [INSR_Y1038_G1035V]
phosphorylation enrichment [1]: 1.28
phosphorylation enrichment [2]: 0.562
phosphorylation enrichment [3]: 0.618
phosphorylation enrichment [4]: 0.621
phosphorylation enrichment [5]: 1.25
phosphorylation enrichment [6]: 0.393
phosphorylation enrichment [7]: 1.22
phosphorylation enrichment [8]: 0.77
phosphorylation enrichment [9]: 0.634
phosphorylation enrichment [10]: 0.747
phosphorylation enrichment [11]: 0.85
phosphorylation enrichment [12]: 0.551
phosphorylation enrichment [13]: 0.683
